Results as given in article PMC5038948 (PLoS ONE, 2016).

B1: neutrophil elastase (enzyme)
chain: IVGGRRARPHAWPFMVSLQLRGGHFCGATLIAPNFVMSAAHCVANVNVRAVRVVLGAHNLSRREPTRQVFAVQRIFENGYDPVNLLNDIVILQLNGSATINANVQVAQLPAQGRRLGNGVQCLAMGWGLLGRNRGIASVLQELNVTVVTSLCRRSNVCTLVRGRQAGVCFGDSGSPLVCNGLIHGIASFVRGGCASGLYPDAFAPVAQFVNWIDSIIQ
modifications: native N-glycosylated, disulfide-bonded active enzyme from human neutrophils. Limits are not printed: the signal and activation dipeptide are removed (starts at 30), and the C-terminal propeptide is …
B2: cationic antimicrobial protein of 37kDa (CAP37) (natural protein, human, UniProt P20160 27-251, looked up)
chain: IVGGRKARPRQFPFLASIQNQGRHFCGGALIHARFVMTAASCFQSQNPGVSTVVLGAYDLRRRERQSRQTFSISSMSENGYDPQQNLNDLMLLQLDREANLTSSVTILPLPLQNATVEAGTRCQVAGWGSQRSGGRLSRFPRFVNVTVTPEDQCRPNNVCTGVLTRRGGICNGDGGTPLVCEGLAHGVASFSLGPCGRGPDFFTRVALFRDWIDGVLNNPGPGPA
notes: cationic antimicrobial protein of 37kDa (CAP37, encoded by AZU1), human, purified from neutrophils, >95% pure by SDS-PAGE; also called AZU1; source: purified from human neutrophils; bought: Athens Research & Technology
B3: cathepsin G (enzyme, human, UniProt P08311 21-244, looked up)
chain: IIGGRESRPHSRPYMAYLQIQSPAGQSRCGGFLVREDFVLTAAHCWGSNINVTLGAHNIQRRENTQQHITARRAIRHPQYNQRTIQNDIMLLQLSRRVRRNRNVNPVALPRAQEGLRPGTLCTVAGWGRVSMRRGTDTLREVQLRVQRDRQCLRIFGSYDPRRQICVGDRRERKAAFKGDSGGPLLCNNVAHGIVSYGKSSGVPPEVFTRVSSFLPWIRTTMRS
notes: cathepsin G (CTSG), human, purified from neutrophils, >95% pure by SDS-PAGE; also called CG; CTSG; source: purified from human neutrophils; bought: Athens Research & Technology

Legend:
Conditions in all cases: both partners purified
[1] = biological target: T1, Recombinant human RAGE Fc chimera (human, UniProt Q15109 23-342); assay: ELISA; CAP37, neutrophil elastase, cathepsin G or Aβ1-42 (0.5 μg/well) or BSA (1000 μg/well) coated on Maxisorp plates in PBS pH 7.4; RAGE Fc chimera 0–3.3 nM in PBST with 0.1% BSA, 37°C, 70 min; bound RAGE detected with goat anti-RAGE; BSA subtracted as background for KD
T1 construct: receptor for advanced glycation end products (RAGE), human, recombinant, fused to Fc; No catalogue number printed; also called receptor for advanced glycation end products; AGER; source: bought: R&D Systems

[2] = biological target: T1, Recombinant human RAGE Fc chimera; assay: ELISA; competition: RAGE Fc chimera coated (0.5 μg/well, 83.3 nM); Aβ1-42 (11 nM) added at the same time as CAP37 (0–2.5 μM) or neutrophil elastase (0–0.5 μM); no protease inhibitors; bound Aβ1-42 detected with anti-APP/Aβ
[3] = biological target: T2, Amyloid beta 1–42 (Aβ1–42) (UniProt P05067 672-713); assay: ELISA; CAP37, neutrophil elastase or cathepsin G (0.5 μg/well) or BSA (1000 μg/well) coated; Aβ1-42 0–111 nM in PBST with 0.1% BSA and protease inhibitor cocktail; bound Aβ1-42 detected with anti-APP/Aβ; BSA subtracted as background for KD
T2 construct: amyloid beta 1-42, the cut product of amyloid precursor protein (APP); numbers count on: the Aβ peptide; source: bought: Bachem (95.2% pure by HPLC), dissolved in 1 mM sodium hydroxide

T1 sequence (Q15109 23-342, change not shown): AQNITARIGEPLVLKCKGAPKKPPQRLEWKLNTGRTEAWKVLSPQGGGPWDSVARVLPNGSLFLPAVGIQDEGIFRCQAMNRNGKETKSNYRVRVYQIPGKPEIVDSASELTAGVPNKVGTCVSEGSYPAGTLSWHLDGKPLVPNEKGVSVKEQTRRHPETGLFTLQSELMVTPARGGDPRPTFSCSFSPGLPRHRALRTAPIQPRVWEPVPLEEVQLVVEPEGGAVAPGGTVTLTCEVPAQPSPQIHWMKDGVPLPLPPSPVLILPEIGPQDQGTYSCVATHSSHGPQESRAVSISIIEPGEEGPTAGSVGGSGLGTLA

Binder	Kd [1]	IC50 [2]	Kd [3]
B1	3.25 nM	–	–
B2	1.26 nM	1280 nM	37.9 nM
B3	0.45 nM	–	20.7 nM
